Test results as given in article PMC8659191, “Expressed Soybean Leghemoglobin: Effect on Escherichia coli at Oxidative and Nitrosative Stress” (Molecules, 2021).

Tested on: CC(C)(C)OO
Assay: purified protein
Settings: pH 7.4; 25.0 °C

For “Lba (soybean leghemoglobin a, recombinant, ferric metLb) (Glycine max)”, the Km was 5.4 ± 0.05 mM.
